Source: patent publication US6361968

What was measured:
c-Jun (unmodified) = c-Jun (unmodified) (UniProt P05412); experiment: thermal melt of the mixture (FIG. 4)
[1] = target: c-Myc bHLH protein (murine) (UniProt P01108); experiment: heterodimer with c-Myc, dimerization study of FIG. 9
[2] = target: bHLH MAX (unmodified Max) (UniProt P61244); experiment: homodimer, dimerization study of FIG. 9

Sequence of c-Myc bHLH protein (murine) (P01108 368-454 limits assumed, form in doubt): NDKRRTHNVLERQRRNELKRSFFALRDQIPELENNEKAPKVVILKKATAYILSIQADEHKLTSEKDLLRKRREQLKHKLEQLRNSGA
Sequence of c-Jun (unmodified) (P05412 241-331 limits assumed): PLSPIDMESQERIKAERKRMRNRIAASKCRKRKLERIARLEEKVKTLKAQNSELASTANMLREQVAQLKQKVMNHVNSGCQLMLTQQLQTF

Substance | Tm (c-Jun (unmodified)) [°C] | Kd [1] [nM] | Kd [2] [µM]
0heptad-Fos (c-Fos with the basic region deleted) (designed binder) | 53 | – | –
bHLH MAX (unmodified Max) (from UniProt P61244 23-113) | – | 30 | 6
